Experiments:
[1] = molecular target: photoactivated bovine rhodopsin (bovine) (UniProt P02699)
[2] = molecular target: P23H bovine opsin (bovine) (UniProt P02699)
[3] = molecular target: photoactivated bovine rhodopsin (bovine) (UniProt P02699); remark: listed apart in the source

UV-Vis decay of A478 nm after addition of 5 mM hydroxylamine, plateau against bRho* alone [1]: 4 times
opsin level by western blot (1D4) in HEK293S cells co-expressing Nb2 intracellularly, against the non-binding Nb16 control [2]: 2 fold
intrinsic Trp fluorescence at 330 nm after illumination (Meta II decay, release of retinal) [3]: 3 fold
B1: Nb2 (llama nanobody against bovine rhodopsin) (VHH)
VHH: QVQLVESGGGLVQPGGSLRLSCAASGFTFSKYAMNWVRQPPGKGLEWVSGIRPSGDNPTYADSVEGRFTIIRDNDKKMVYLQMTSLKTEDTAVYYCTRGYGTMTIEGQGTQVTVSS
